Patent CN112239498A

Experiments:
[1] = molecular target: 1aE2C、1bE2C、2aE2C、3aE2C、4aE2C、5aE2C、6aE2C; test: ELISA, coated E2C of seven subtypes
[2] = molecular target: 1bE2C (Hepatitis C virus, subtype 1b); test: ELISA, coated 1bE2C, anti-human IgG-HRP detection

B1: 抗体HNC-5 (antibody, V domains shown)
VH: QVQLVQSGAEVKKPGSSVKVSCKVSGVTFKGYAISWVRQAPGQGLEWMGSVIPIFGAANYAQQFQGRVTITADESTSTAYMELRSLKFDDTAVYYCGRGDQLLWGITAFHYWGQGTLVTVSS
VL: EIVLTQSPGTLPLSPGEGATLSCRASHIVTSNNLAWYQQKPGQAPRLLIYGASNRATGIPDRFSGSGSGTDFTLTISRLEPEDFAMYYCQQYGSSPGTFGQGTKLEIK
**Q.** With B1 as the binder, how does the EC50 [1] read?
**A.** 0.00216 to 0.0226 µg/mL

**Q.** And the EC50 [2]?
**A.** 0.016 µg/mL
